Test results reported in article PMC6458997, “Deciphering the Molecular Mechanism Underpinning Phage Arbitrium Communication Systems” (Molecular Cell, 2019).

B1: unnamed (parent)
chain 1: MELIRIAMKKDLENDNSLMNKWATVAGLKNPNPLYDFLNHDGKTFNEFSSIVNIVKSQYPDREYELMKDYCLNLDVKTKAARSALEYADANMFFEIEDVLIDSMISCSNMKSKEYGKVYKIHRELSNSVITEFEAVKRLGKLNIKTPEMNSFSRLLLLYHYLSTGNFSPMAQLIKQIDLSEISENMYIRNTYQTRVHVLMSNIKLNENSLEECREYSKKALESTNILRFQVFSYLTIGNSLLFSNYELAQENFLKGLSISVQNENYNMIFQQALCFLNNVWRKENKWINFESDSIMDLQEQAHCFINFNENSKAKEVLDKLDLLVHNDNELAMHYYLKGRLEQNKACFYSSIEYFKKSNDKFLIRLPLLELQKMGENQKLLELLLL
chain 2: not shown

Variants of: B1
Test: thermal shift assay
Conditions: with partner chain of the complex shown; AimR + AimP; one of three independent experiments

| Variant | screen value [°C] |
| --- | --- |
| chain 1 D360A | 44.4 |
| chain 1 N202A | 50.9 |
